Source: paper PMC4894967

Target: ATM/Tel1 kinase from Schizosaccharomyces pombe (S. pombe) (UniProt O74630)
Assay: cryo-EM structure; single-particle cryo-EM of purified ATM/Tel1, 20-50 ug/ml in 20 mM HEPES pH 8.0, 40 mM KOAc, 5 mM MgCl2, 0.1% trehalose, 2 mM DTT, 0.01% NP-40; 8.7 Å; initial model from negative-stain RCT

stoichiometry N: 2
Substance: ATM/Tel1 kinase from Schizosaccharomyces pombe, O74630 1-2812
